According to article PMC7271899, “Bayesian modeling reveals metabolite‐dependent ultrasensitivity in the cyanobacterial circadian clock” (Molecular Systems Biology, 2020):

T1: KaiA (Synechococcus elongatus, UniProt Q79PF6 1-284)
T1 construct: KaiA, circadian clock protein of Synechococcus elongatus; source: expressed and purified as previously described (Phong et al, 2013); anion exchange on HiTrap Q columns
T1 sequence (looked up): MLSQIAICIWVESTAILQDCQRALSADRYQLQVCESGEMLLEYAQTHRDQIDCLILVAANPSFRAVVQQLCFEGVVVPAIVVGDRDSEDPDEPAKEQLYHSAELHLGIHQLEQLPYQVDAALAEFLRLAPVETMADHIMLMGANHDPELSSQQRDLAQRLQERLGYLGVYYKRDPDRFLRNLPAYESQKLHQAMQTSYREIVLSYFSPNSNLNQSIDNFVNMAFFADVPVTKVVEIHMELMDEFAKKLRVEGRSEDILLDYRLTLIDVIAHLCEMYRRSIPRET


Key:
[1] = biological target: the molecule itself; assay: SEC; Superdex 75 1660 prep grade column, step of the purification after Ni-NTA
KaiA = biological target: T1, KaiA; assay: co-IP; in vitro KaiABC clock reaction of purified proteins (KaiC present), time course; KaiB-FLAG precipitated with monoclonal anti-FLAG M2 antibody, eluted with 3xFLAG peptide; KaiA left in the supernatant quantified by SDS-PAGE (SYPRO Ruby) against 1.5 uM GFP as internal standard; conditions: both partners purified

binding result (KaiA) | Binder | stoichiometry N [1]
 | C-terminal domain of KaiA (residues 181-284) (domain or fragment, Synechococcus elongatus, UniProt Q79PF6 181-284, looked up, KaiA of Synechococcus elongatus, C-terminal domain, residues 181-284; Uniformly 15N labelled, grown in deuterated water, for NMR; Purified as described in Chang et al, 2011, 2012; Tseng et al, 2014; also called C-terminal KaiA; source: E. coli BL21(DE3), M9 media with 15N NH4Cl in 98% D2O, purified (Ni-NTA, SEC on Superdex 75)) NLPAYESQKLHQAMQTSYREIVLSYFSPNSNLNQSIDNFVNMAFFADVPVTKVVEIHMELMDEFAKKLRVEGRSEDILLDYRLTLIDVIAHLCEMYRRSIPRET | 2
binds | KaiB-FLAG (natural protein, Synechococcus elongatus, UniProt Q79PF5 1-102, looked up, KaiB, circadian clock protein of Synechococcus elongatus; also called FLAG-tagged KaiB; source: expressed and purified as previously described (Phong et al, 2013); anion exchange on HiTrap Q columns) MSPRKTYILKLYVAGNTPNSVRALKTLKNILEVEFQGVYALKVIDVLKNPQLAEEDKILATPTLAKVLPLPVRRIIGDLSDREKVLIGLDLLYGELQDSDDF | 
